B1: ADP-ribosylation factor-binding protein GGA1 (Homo sapiens), Q9UJY5 (parent)
chain: MEPAMEPETLEARINRATNPLNKELDWASINGFCEQLNEDFEGPPLATRLLAHKIQSPQEWEAIQALTVLETCMKSCGKRFHDEVGKFRFLNELIKVVSPKYLGSRTSEKVKNKILELLYSWTVGLPEEVKIAEAYQMLKKQGIVKSDPKLPDDTTFPLPPPRPKNVIFEDEEKSKMLARLLKSSHPEDLRAANKLIKEMVQEDQKRMEKISKRVNAIEEVNNNVKLLTEMVMSHSQGGAAAGSSEDLMKELYQRCERMRPTLFRLASDTEDNDEALAEILQANDNLTQVINLYKQLVRGEEVNGDATAGSIPGSTSALLDLSGLDLPPAGTTYPAMPTRPGEQASPEQPSASVSLLDDELMSLGLSDPTPPSGPSLDGTGWNSFQSSDATEPPAPALAQAPSMESRPPAQTSLPASSGLDDLDLLGKTLLQQSLPPESQQVRWEKQQPTPRLTLRDLQNKSSSCSSPSSSATSLLHTVSPEPPRPPQQPVPTELSLASITVPLESIKPSNILPVTVYDQHGFRILFHFARDPLPGRSDVLVVVVSMLSTAPQPIRNIVFQSAVPKVMKVKLQPPSGTELPAFNPIVHPSAITQVLLLANPQKEKVRLRYKLTFTMGDQTYNEMGDVDQFPPPETWGSL
partner: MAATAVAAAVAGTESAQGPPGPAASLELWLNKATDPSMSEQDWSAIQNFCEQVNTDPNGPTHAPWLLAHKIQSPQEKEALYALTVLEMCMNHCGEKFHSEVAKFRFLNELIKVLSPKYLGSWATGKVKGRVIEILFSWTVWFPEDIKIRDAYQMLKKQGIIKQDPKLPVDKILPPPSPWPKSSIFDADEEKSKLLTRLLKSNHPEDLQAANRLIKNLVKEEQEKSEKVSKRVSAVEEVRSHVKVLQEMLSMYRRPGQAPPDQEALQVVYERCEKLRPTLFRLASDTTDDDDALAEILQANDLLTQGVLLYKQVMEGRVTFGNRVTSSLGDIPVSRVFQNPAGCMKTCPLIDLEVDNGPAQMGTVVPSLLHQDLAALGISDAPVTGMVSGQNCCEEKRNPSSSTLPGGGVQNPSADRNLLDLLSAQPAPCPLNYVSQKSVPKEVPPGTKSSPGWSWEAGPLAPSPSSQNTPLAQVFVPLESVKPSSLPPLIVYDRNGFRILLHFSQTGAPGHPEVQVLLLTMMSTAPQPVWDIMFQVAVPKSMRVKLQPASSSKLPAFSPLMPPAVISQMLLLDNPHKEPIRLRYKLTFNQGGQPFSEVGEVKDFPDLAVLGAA

Variants of: B1
Conditions: with gga2_human GGA2, Q9UJY4

Row | effect of a mutation on the interaction | Variant
1 | with no effect | D358A
